B1: A022600133 (protein)
chain: DVQLVESGGGVVQPGGSLRLSCVASGYVHKINFYGWYRQAPGKEREKVAHISIGDQTDYADSAKGRFTISRDESKNTVYLQMNSLRPEDTALYYCRALSRIWPYDYWGQGTLVTVSSGGGGSEVQLVESGGGLVQPGGSLRLSCVASGSIFRSVFSSSTMEWYRQPPGKKRELVARIAPGDGTNYGALYADSVKGRFTISRDDAKKTVDLQMNSLKPEDTGVYFCASGVAWGQGTLVTVSSGGGGSGGGGSGGGGSGGGGSGGGGSGGGGSGGGGSEVQLVESGGGLVQPGGSLRLSCVASGFTFSSFAMTWVRRPPGKGLEWVATITNGGVTSYRDSVKGRFTISRDNAKNTLYLEMTSLNPEDTAVYICANARRTGPRAPTDIGSYRGQGTLVTVSSGGGGSGGGGSGGGGSGGGGSGGGGSGGGGSGGGGSEVQLVESGGGVVQPGGSLRLSCAASGFTFRSFGMSWVRQAPGKGPEWVSSISGSGSDTLYADSVKGRFTISRDNSKNTLYLQMNSLRPEDTALYYCTIGGSLSRSSQGTLVTVSSA
B2: A022600132 (protein)
chain: DVQLVESGGGVVQPGGSLRLSCVASGYVHKINFYGWYRQAPGKEREKVAHISIGDQTDYADSAKGRFTISRDESKNTVYLQMNSLRPEDTALYYCRALSRIWPYDYWGQGTLVTVSSGGGGSEVQLVESGGGLVQPGGSLRLSCVASGFTFSSFAMTWVRRPPGKGLEWVATITNGGVTSYRDSVKGRFTISRDNAKNTLYLEMTSLNPEDTAVYICANARRTGPRAPTDIGSYRGQGTLVTVSSGGGGSGGGSEVQLVESGGGLVQPGGSLRLSCVASGSIFRSVFSSSTMEWYRQPPGKKRELVARIAPGDGTNYGALYADSVKGRFTISRDDAKKTVDLQMNSLKPEDTGVYFCASGVAWGQGTLVTVSSGGGGSGGGGSGGGGSGGGGSGGGGSGGGGSGGGGSEVQLVESGGGVVQPGGSLRLSCAASGFTFRSFGMSWVRQAPGKGPEWVSSISGSGSDTLYADSVKGRFTISRDNSKNTLYLQMNSLRPEDTALYYCTIGGSLSRSSQGTLVTVSSA
B3: A022600175 (protein)
chain: DVQLVESGGGVVQPGGSLRLSCVASGYVHKINFYGWYRQAPGKEREKVAHISIGDQTDYADSAKGRFTISRDESKNTVYLQMNSLRPEDTAAYYCRALSRIWPYDYWGQGTLVTVSSGGGGSEVQLVESGGGLVQPGGSLRLSCVASGFTFSSFAMTWVRRPPGKGLEWVATITNGGVTSYRDSVKGRFTISRDNAKNTLYLEMTSLNPEDTAVYICANARRTGPRAPTDIGSYRGQGTLVTVSSGGGGSGGGSEVQLVESGGGLVQPGGSLRLSCVASGSIFRSVFSSSTMEWYRQPPGKKRELVARIAPGDGTNYGALYADSVKGRFTISRDDAKKTVDLQMNSLKPEDTGVYFCASGVAWGQGTLVTVSSGGGGSGGGGSGGGGSGGGGSGGGGSGGGGSGGGGSEVQLVESGGGVVQPGGSLRLSCAASGFTFRSFGMSWVRQAPGKGPEWVSSISGSGSDTLYADSVKGRFTISRDNSKNTLYLQMNSLRPEDTALYYCTIGGSLSRSSQGTLVTVSSA
B4: A022600174 (protein)
chain: DVQLVESGGGVVQPGGSLRLSCVASGYVHKINFYGWYRQAPGKEREKVAHISIGDQTDYADSAKGRFTISRDESKNTVYLQMNSLRPEDTAAYYCRALSRIWPYDYWGQGTLVTVSSGGGGSEVQLVESGGGLVQPGGSLRLSCVASGFTFSSFAMTWVRRPPGKGLEWVATITNGGVTSYRDSVKGRFTISRDNAKNTLYLEMTSLNPEDTAVYICANARRTGPRAPTDIGSYRGQGTLVTVSSGGGGSGGGSEVQLVESGGGLVQPGGSLRLSCVASGSIFRSVFSSSTMEWYRQPPGKKRELVARIAPGDGTNYGALYADSVKGRFTISRDDAKKTVDLQMNSLKPEDTGVYFCASGVAWGQGTLVTVSSGGGGSGGGSEVQLVESGGGVVQPGGSLRLSCAASGFTFRSFGMSWVRQAPGKGPEWVSSISGSGSDTLYADSVKGRFTISRDNSKNTLYLQMNSLRPEDTALYYCTIGGSLSRSSQGTLVTVSSA
B5: A022600134 (protein)
chain: DVQLVESGGGVVQPGGSLRLSCVASGYVHKINFYGWYRQAPGKEREKVAHISIGDQTDYADSAKGRFTISRDESKNTVYLQMNSLRPEDTALYYCRALSRIWPYDYWGQGTLVTVSSGGGGSEVQLVESGGGLVQPGGSLRLSCVASGSIFRSVFSSSTMEWYRQPPGKKRELVARIAPGDGTNYGALYADSVKGRFTISRDDAKKTVDLQMNSLKPEDTGVYFCASGVAWGQGTLVTVSSGGGGSGGGGSGGGGSGGGGSEVQLVESGGGLVQPGGSLRLSCVASGFTFSSFAMTWVRRPPGKGLEWVATITNGGVTSYRDSVKGRFTISRDNAKNTLYLEMTSLNPEDTAVYICANARRTGPRAPTDIGSYRGQGTLVTVSSGGGGSGGGGSGGGGSGGGGSGGGGSGGGGSGGGGSEVQLVESGGGVVQPGGSLRLSCAASGFTFRSFGMSWVRQAPGKGPEWVSSISGSGSDTLYADSVKGRFTISRDNSKNTLYLQMNSLRPEDTALYYCTIGGSLSRSSQGTLVTVSSA
B6: A022600167 (protein)
chain: DVQLVESGGGVVQPGGSLRLSCVASGYVHKINFYGWYRQAPGKEREKVAHISIGDQTDYADSAKGRFTISRDESKNTVYLQMNSLRPEDTAAYYCRALSRIWPYDYWGQGTLVTVSSGGGGSEVQLVESGGGLVQPGGSLRLSCVASGFTFSSFAMTWVRRPPGKGLEWVATITNGGVTSYRDSVKGRFTISRDNAKNTLYLEMTSLNPEDTAVYICANARRTGPRAPTDIGSYRGQGTLVTVSSGGGGSGGGGSGGGGSGGGGSGGGGSGGGGSGGGGSEVQLVESGGGVVQPGGSLRLSCAASGFTFRSFGMSWVRQAPGKGPEWVSSISGSGSDTLYADSVKGRFTISRDNSKNTLYLQMNSLRPEDTALYYCTIGGSLSRSSQGTLVTVSSA
B7: A022600135 (protein)
chain: DVQLVESGGGVVQPGGSLRLSCVASGYVHKINFYGWYRQAPGKEREKVAHISIGDQTDYADSAKGRFTISRDESKNTVYLQMNSLRPEDTALYYCRALSRIWPYDYWGQGTLVTVSSGGGGSEVQLVESGGGLVQPGGSLRLSCVASGSIFRSVFSSSTMEWYRQPPGKKRELVARIAPGDGTNYGALYADSVKGRFTISRDDAKKTVDLQMNSLKPEDTGVYFCASGVAWGQGTLVTVSSGGGGSGGGSEVQLVESGGGLVQPGGSLRLSCVASGFTFSSFAMTWVRRPPGKGLEWVATITNGGVTSYRDSVKGRFTISRDNAKNTLYLEMTSLNPEDTAVYICANARRTGPRAPTDIGSYRGQGTLVTVSSGGGGSGGGGSGGGGSGGGGSGGGGSGGGGSGGGGSEVQLVESGGGVVQPGGSLRLSCAASGFTFRSFGMSWVRQAPGKGPEWVSSISGSGSDTLYADSVKGRFTISRDNSKNTLYLQMNSLRPEDTALYYCTIGGSLSRSSQGTLVTVSSA
B8: A022600168 (protein)
chain: DVQLVESGGGVVQPGGSLRLSCVASGYVHKINFYGWYRQAPGKEREKVAHISIGDQTDYADSAKGRFTISRDESKNTVYLQMNSLRPEDTAAYYCRALSRIWPYDYWGQGTLVTVSSGGGGSEVQLVESGGGLVQPGGSLRLSCVASGFTFSSFAMTWVRRPPGKGLEWVATITNGGVTSYRDSVKGRFTISRDNAKNTLYLEMTSLNPEDTAVYICANARRTGPRAPTDIGSYRGQGTLVTVSSGGGGSGGGGSGGGGSGGGGSGGGGSGGGGSGGGGSEVQLVESGGGLVQPGGSLRLSCVASGSIFRSVFSSSTMEWYRQPPGKKRELVARIAPGDGTNYGALYADSVKGRFTISRDDAKKTVDLQMNSLKPEDTGVYFCASGVAWGQGTLVTVSSGGGGSGGGGSGGGGSGGGGSGGGGSGGGGSGGGGSEVQLVESGGGVVQPGGSLRLSCAASGFTFRSFGMSWVRQAPGKGPEWVSSISGSGSDTLYADSVKGRFTISRDNSKNTLYLQMNSLRPEDTALYYCTIGGSLSRSSQGTLVTVSSA
B9: A022600169 (protein)
chain: DVQLVESGGGLVQPGGSLRLSCVASGFTFSSFAMTWVRRPPGKGLEWVATITNGGVTSYRDSVKGRFTISRDNAKNTLYLEMTSLNPEDTAVYICANARRTGPRAPTDIGSYRGQGTLVTVSSGGGGSEVQLVESGGGVVQPGGSLRLSCVASGYVHKINFYGWYRQAPGKEREKVAHISIGDQTDYADSAKGRFTISRDESKNTVYLQMNSLRPEDTAAYYCRALSRIWPYDYWGQGTLVTVSSGGGGSEVQLVESGGGLVQPGGSLRLSCVASGSIFRSVFSSSTMEWYRQPPGKKRELVARIAPGDGTNYGALYADSVKGRFTISRDDAKKTVDLQMNSLKPEDTGVYFCASGVAWGQGTLVTVSSGGGGSGGGGSGGGGSGGGGSGGGGSGGGGSGGGGSEVQLVESGGGVVQPGGSLRLSCAASGFTFRSFGMSWVRQAPGKGPEWVSSISGSGSDTLYADSVKGRFTISRDNSKNTLYLQMNSLRPEDTALYYCTIGGSLSRSSQGTLVTVSSA

The binders below were run against human GPC3 on cells (human) (UniProt P51654) (assay: cell-based or functional assay).
Binder B1 has an IC50 (M), Incucyte human TDC HepG2-Nuclight green assay, E:T 15:1 (Step 2) of 4.08e-10 M and a Max % Killing, Incucyte human TDC HepG2-Nuclight green assay (Step 2) of 92%.
B2 was tested, and the HepG2 on Incucyte IC50 (M), human TDC, E:T 15:1, 60 h was 6.83e-10 M, the HepG2 on Incucyte Max % killing, 60 h was 83% and the Huh7 on xCELLigence IC50 (M), human TDC, E:T 15:1, 60 h was 2.9e-10 M. It also gave a Huh7 on xCELLigence Max % killing, 60 h of 95%, an IC50 (M), Incucyte human TDC HepG2-Nuclight green assay, E:T 15:1 (Step 2) of 7.02e-10 M and a Max % Killing, Incucyte human TDC HepG2-Nuclight green assay (Step 2) of 91%.
Binder B3 has a HepG2 on Incucyte IC50 (M), human TDC, E:T 15:1, 60 h of 5.27e-10 M, a HepG2 on Incucyte Max % killing, 60 h of 96% and a Huh7 on xCELLigence IC50 (M), human TDC, E:T 15:1, 60 h of 5.86e-11 M. For the same binder, the Huh7 on xCELLigence Max % killing, 60 h was 99%.
Binder B4 has a HepG2 on Incucyte IC50 (M), human TDC, E:T 15:1, 60 h of 6.73e-10 M, a HepG2 on Incucyte Max % killing, 60 h of 96% and a Huh7 on xCELLigence IC50 (M), human TDC, E:T 15:1, 60 h of 6.26e-11 M. The Huh7 on xCELLigence Max % killing, 60 h was 99%.
For B5, the IC50 (M), Incucyte human TDC HepG2-Nuclight green assay, E:T 15:1 (Step 2) was 5.28e-10 M and the Max % Killing, Incucyte human TDC HepG2-Nuclight green assay (Step 2) was 92%.
For B6, the HepG2 on Incucyte IC50 (M), human TDC, E:T 15:1, 60 h was 1.92e-09 M, the HepG2 on Incucyte Max % killing, 60 h was 98% and the Huh7 on xCELLigence IC50 (M), human TDC, E:T 15:1, 60 h was 8.61e-09 M. It also gave a Huh7 on xCELLigence Max % killing, 60 h of 91%, an IC50 (M), xCELLigence human TDC assay on Hep-G2, E:T 15:1, 60 h of 9.2e-11 M and an IC50 (M), xCELLigence human TDC assay on Huh-7, E:T 15:1, 60 h of 4.7e-10 M. For the same binder, the IC50 (M), xCELLigence human TDC assay on NCI-H661, E:T 15:1, 75 h was 1.8e-10 M.
Binder B7 has an IC50 (M), Incucyte human TDC HepG2-Nuclight green assay, E:T 15:1 (Step 2) of 6.11e-10 M and a Max % Killing, Incucyte human TDC HepG2-Nuclight green assay (Step 2) of 91%.
In the case of B8, the HepG2 on Incucyte IC50 (M), human TDC, E:T 15:1, 60 h is reported as 3.67e-10 M, the HepG2 on Incucyte Max % killing, 60 h is reported as 103% and the Huh7 on xCELLigence IC50 (M), human TDC, E:T 15:1, 60 h is reported as 1.98e-10 M. For the same binder, the Huh7 on xCELLigence Max % killing, 60 h was 107%, the IC50 (M), xCELLigence human TDC assay on Hep-G2, E:T 15:1, 60 h was 7.3e-11 M and the IC50 (M), xCELLigence human TDC assay on Huh-7, E:T 15:1, 60 h was 2.4e-11 M. It also gave an IC50 (M), xCELLigence human TDC assay on NCI-H661, E:T 15:1, 75 h of 1.4e-10 M.
B9 showed a HepG2 on Incucyte IC50 (M), human TDC, E:T 15:1, 60 h of 6.41e-10 M, a HepG2 on Incucyte Max % killing, 60 h of 81% and a Huh7 on xCELLigence IC50 (M), human TDC, E:T 15:1, 60 h of 1.02e-09 M. The Huh7 on xCELLigence Max % killing, 60 h was 61%.

Reference: patent publication US20240092919A1
